Reference: doi:10.1101/2021.09.27.462041

Key:
Assay in all cases: SPR
[1] = target: H3K36me3 11-mer histone H3 tail peptide
[2] = target: H3K9me3 11-mer histone H3 tail peptide
[3] = target: H3K4me3 11-mer histone H3 tail peptide
[4] = target: H3K27me3 11-mer histone H3 tail peptide

B1: DIDO3 PHD domain (domain or fragment)
chain: PNALYCICRQPHNNRFMICCDRCEEWFHGDCVGISEARGRLLERNGEDYICPNCTILQVQ
- Kd [1]: 32.1 nM
- koff [1]: 0.0024 s⁻¹
- Kd [2]: 22.2 nM
- Kd [3]: 25.5 nM
- koff [3]: 0.00238 s⁻¹
- Kd [4]: 26.5 nM
